PMC6537384, “A GDF11/myostatin inhibitor, GDF11 propeptide-Fc, increases skeletal muscle mass and improves muscle strength in dystrophic mdx mice” (Skeletal Muscle, 2019)

Columns and labels:
recombinant MSTN = biological target: T1, recombinant MSTN (UniProt O14793 267-375); test: cell-based or functional assay
T1 sequence (looked up): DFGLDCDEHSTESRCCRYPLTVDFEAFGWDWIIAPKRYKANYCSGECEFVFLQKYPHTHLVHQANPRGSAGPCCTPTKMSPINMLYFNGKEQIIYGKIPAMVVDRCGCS

recombinant GDF11 = biological target: T2, recombinant GDF11 (UniProt O95390 299-407); test: cell-based or functional assay
T2 sequence (looked up): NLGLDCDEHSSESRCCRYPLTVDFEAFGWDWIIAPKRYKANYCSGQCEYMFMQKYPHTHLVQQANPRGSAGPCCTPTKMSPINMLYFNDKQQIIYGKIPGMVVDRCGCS

B1: GDF11 propeptide-Fc (Fc fusion, human, UniProt O95390 25-298, looked up)
chain: AEGPAAAAAAAAAAAAAGVGGERSSRPAPSVAPEPDGCPVCVWRQHSRELRLESIKSQILSKLRLKEAPNISREVVKQLLPKAPPLQQILDLHDFQGDALQPEDFLEEDEYHATTETVISMAQETDPAVQTDGSPLCCHFHFSPKVMFTKVLKAQLWVYLRPVPRPATVYLQILRLKPLTGEGTAGGGGGGRRHIRIRSLKIELHSRSGHWQSIDFKQVLHSWFRQPQSNWGIEINAFDPSGTDLAVTSLGPGAEGLHPFMELRVLENTKRSRR
In the case of B1, the “average myotube diameter relative to control, C2C12 myotubes expressing GDF11PRO-Fc (AAV6) treated with 100 ng/ml rMSTN (rMSTN alone: − 35%)” value (recombinant MSTN) is reported as -5.3%, the “differentiation index relative to untreated control, C2C12 myotubes expressing GDF11PRO-Fc (AAV6) treated with 100 ng/ml rMSTN (rMSTN alone: − 14%)” value (recombinant MSTN) is reported as -3% and the “average myotube diameter relative to control, C2C12 myotubes expressing GDF11PRO-Fc (AAV6) treated with 100 ng/ml rGDF11 (rGDF11 alone: − 39%)” value (recombinant GDF11) is reported as -1.8%. The “differentiation index relative to untreated control, C2C12 myotubes expressing GDF11PRO-Fc (AAV6) treated with 100 ng/ml rGDF11 (rGDF11 alone: − 15%)” value (recombinant GDF11) was -1.9%.
